The values that follow come from publication doi:10.1101/2024.01.05.574328.

The target in this assay is AcrIF25 (A. baumannii). Nature of the assay: cross-linking.

Take AcrIF25 (natural protein): the stoichiometry N came to 2.

As a reminder, the stoichiometry N is a count of units in the complex or per binding partner.
